Source: publication PMC5028891 (Scientific Reports, 2016)

Biological target: T1, human claudin-4 (full-length), wild type (human, UniProt O14493 1-209)
T1 construct: also called claudin-4 wild type; WT
T1 sequence (looked up): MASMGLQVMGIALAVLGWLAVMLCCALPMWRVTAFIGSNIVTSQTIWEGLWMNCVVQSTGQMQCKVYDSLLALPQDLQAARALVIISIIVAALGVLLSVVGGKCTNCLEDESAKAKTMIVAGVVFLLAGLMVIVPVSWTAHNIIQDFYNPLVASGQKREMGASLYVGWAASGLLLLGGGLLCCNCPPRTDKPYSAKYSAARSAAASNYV
Assay: pull-down
Conditions: both partners purified

B1: glutathione-S-transferase-tagged C-CPE (residues 185′–319′), wild type (domain or fragment)
chain: RCVLTVPSTDIEKEILDLAAATERLNLTDALNSNPAGNLYDWRSSNSYPWTQKLNLHLTITATGQKYRILASKIVDFNIYSNNFNNLVKLEQSLGDGVKDHYVDISLDAGQYVLVMKANSSYSGNYPYSILFQKF
  binding result: binds
